Results reported in patent US20090304577A1.
Blank lines part the entries; values can stand above or below the binder they belong to. No end group written: not given here.

What was measured:
[1] = target: monoclonal anti-TCR Vβ antibody; assay: ELISA OD with α-TCR Vβ on plate coated with CDR-L3 homodimer, against control (culture medium/PBS)
[2] = target: monoclonal anti-TCR Vβ antibody; assay: ELISA; plate coated with CDR-L3 homodimer, tested against α-TCR Vβ; mean ± SD of three observations
[3] = target: monoclonal anti-TCR Vβ antibody; assay: ELISA OD with α-TCR Vβ on plate coated with CDR-H3 homodimer, against control (culture medium/PBS)
[4] = target: monoclonal anti-TCR Vβ antibody; assay: ELISA; plate coated with CDR-H3 homodimer, tested against α-TCR Vβ; mean ± SD of three observations
[5] = target: monoclonal anti-TCR Vβ antibody; assay: ELISA OD with α-TCR Vβ on plate coated with CDR-H2 homodimer, against control (culture medium/PBS)
[6] = target: monoclonal anti-TCR Vβ antibody; assay: ELISA; plate coated with CDR-H2 homodimer, tested against α-TCR Vβ; mean ± SD of three observations

- Ratio Test/Control [1]: 1.74
- optical density [2]: 0.243 OD
B1: CDR-L3 homodimer peptide (SEQ ID NO:16 with an added N terminal cysteine, dimerised) (peptide)
peptide: CQQYNSYPLT
modifications: also: homodimer, linkage not given here

- Ratio Test/Control [3]: 2
- optical density [4]: 0.182 OD
B2: CDR-H3 homodimer peptide (SEQ ID NO:10 with an added N terminal cysteine, dimerised) (peptide)
peptide: CLRGLLPDY
modifications: also: homodimer, linkage not given here

- Ratio Test/Control [5]: 1.83
- optical density [6]: 0.307 OD
B3: CDR-H2 homodimer peptide (SEQ ID NO:8 with an added N terminal cysteine, dimerised) (peptide)
peptide: CNIYPSDSYTNYNQKFKD
modifications: also: homodimer, linkage not given here
